Measurements reported in article doi:10.1101/2022.02.02.478753.

Biological target: holoTvFDPF3, highly active Class F flavodiiron protein 3 from Trichomonas vaginalis (TVAG_121610) (Trichomonas vaginalis)
Experiment: cryo-EM structure

stoichiometry N: 2
Substance: holoTvFDPF3, highly active Class F flavodiiron protein 3 from Trichomonas vaginalis (TVAG_121610) (enzyme)
